Results published in US20220323607A1, “SYNTHETIC NANOCARRIERS COMPRISING AN IMMUNOSUPPRESSANT IN COMBINATION WITH HIGH AFFINITY IL-2 RECEPTOR AGONISTS TO ENHANCE IMMUNE TOLERANCE” (Selecta Biosciences, Inc., priority 2021, published 2022).

Tested on: Ovalbumin-specific OTII T cells
Assay: Adoptive transfer of ovalbumin-specific OTII T cells, Foxp3 expression (Example 5)
Type: in vivo
Conditions: mice with adoptively transferred OTII T cells; starting from ~3%
Method: However, expansion of antigen-specific Treg can be more desirable than expansion of total Treg. The ability of ImmTOR plus antigen combined with IL-2 mutein to induce and/or expand antigen-specific Treg was evaluated. Ovalbumin-specific OTII T cells were adoptively transferred into mice prior to treatment with ovalbumin and ImmTOR and/or IL-2 mutein.

B1: ovalbumin (protein, UniProt P01012 2-386, looked up)
Ovalbumin: GSIGAASMEFCFDVFKELKVHHANENIFYCPIAIMSALAMVYLGAKDSTRTQINKVVRFDKLPGFGDSIEAQCGTSVNVHSSLRDILNQITKPNDVYSFSLASRLYAEERYPILPEYLQCVKELYRGGLEPINFQTAADQARELINSWVESQTNGIIRNVLQPSSVDSQTAMVLVNAIVFKGLWEKAFKDEDTQAMPFRVTEQESKPVQMMYQIGLFRVASMASEKMKILELPFASGTMSMLVLLPDEVSGLEQLESIINFEKLTEWTSSNVMEERKIKVYLPRMKMEEKYNLTSVLMAMGITDVFSSSANLSGISSAESLKISQAVHAAHAEINEAGREVVGSAEAGVDAASVSEEFRADHPFLFCIKHIATNAVLFFGRCVSP
percentage of Foxp3+ OTII cells: ~6%
